According to patent publication US20250011397A1:

What was measured:
[1] = target: SARS-CoV-2 Spike on HIV-based pseudotyped virus (Spike plasmid BEI NR52310) (SARS-CoV-2) (UniProt P0DTC2); test: cell-based or functional assay
[2] = target: mouse FcγRI (mouse) (UniProt P26151)
[3] = target: mouse FcRn (mouse) (UniProt Q61559)
[4] = target: mouse FcRn (mouse) (UniProt Q61559); test: pH 5.6

Chain of mouse FcγRI (mouse) (P26151 25-297 limits assumed): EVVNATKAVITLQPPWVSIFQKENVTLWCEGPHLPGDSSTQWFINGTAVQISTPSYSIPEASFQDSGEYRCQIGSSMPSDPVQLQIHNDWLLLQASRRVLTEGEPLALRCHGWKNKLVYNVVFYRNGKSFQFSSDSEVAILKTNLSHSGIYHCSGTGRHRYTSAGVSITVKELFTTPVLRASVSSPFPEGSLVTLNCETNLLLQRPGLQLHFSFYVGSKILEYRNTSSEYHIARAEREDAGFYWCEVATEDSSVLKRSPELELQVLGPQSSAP

| Kd [2] [pM] | koff [2] [s⁻¹] | kon [2] [M⁻¹ s⁻¹] | kon [3] [M⁻¹ s⁻¹] | Kd [4] [pM] | koff [4] [s⁻¹] | Substance | IC50 (PsV neutralization) [1] [µg/mL] |
| --- | --- | --- | --- | --- | --- | --- | --- |
| – | – | – | – | – | – | REGN10933 (recombinant mAb, reference IgG) (antibody) | 0.0044 |
| – | – | – | – | – | – | REGN10987 (recombinant mAb, reference IgG) (antibody) | 0.03 |
| < 1 | < 1e-07 | 939000 | 682000 | < 1 | < 1e-07 | mouse surrogate Multabody (HD37, mouse IgG2a Fc, mouse apoferritin), WT Fc | – |
| – | – | – | 2.4e+06 | < 1 | < 1e-07 | mouse surrogate Multabody with LALAP Fc | – |
